Results reported in publication PMC2822398.

Molecular target: variola virus topoisomerase IB (vTopIB) (variola virus (smallpox), UniProt P32989 1-314)
Assay: X-ray crystallography

Chain of variola virus topoisomerase IB (vTopIB) (P32989 whole entry): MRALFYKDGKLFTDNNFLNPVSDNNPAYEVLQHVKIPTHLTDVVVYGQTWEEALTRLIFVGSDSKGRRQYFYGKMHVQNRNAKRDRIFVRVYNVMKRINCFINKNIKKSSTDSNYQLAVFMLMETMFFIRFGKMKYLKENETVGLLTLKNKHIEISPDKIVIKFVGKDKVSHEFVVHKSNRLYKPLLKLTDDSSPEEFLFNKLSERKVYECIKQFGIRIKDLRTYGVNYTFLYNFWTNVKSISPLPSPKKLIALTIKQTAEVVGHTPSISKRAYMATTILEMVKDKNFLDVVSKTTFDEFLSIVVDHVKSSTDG

B1: nicked vTopIB-binding duplex (three oligonucleotides) (dsDNA)
DNA 1: GTGTCGCCCTT
DNA 2: ATTCC
DNA 3: CGGAATAAGGGCGACA
modifications: nick at the scissile phosphate (phosphodiester missing), filled by vanadate in the crystal
  binding result: binds
